Laboratory results reported in the supplement of paper PMC10065799, “High-throughput profiling of sequence recognition by tyrosine kinases and SH2 domains using bacterial peptide display” (eLife, 2023).

What was measured:
[1] = target: FGFR3 (UniProt P22607); test: phosphorylation enrichment, bacterial display (enrichment ratio); higher = better substrate or ligand; peptides without Tyr show the background
[2] = test system: c-Src; test: as above
[3] = test system: AncSZ; test: as above
[4] = target: MERTK (UniProt Q12866); test: as above
[5] = target: Jak2 (UniProt O60674); test: as above
Chain of Jak2 (O60674 whole entry, looked up): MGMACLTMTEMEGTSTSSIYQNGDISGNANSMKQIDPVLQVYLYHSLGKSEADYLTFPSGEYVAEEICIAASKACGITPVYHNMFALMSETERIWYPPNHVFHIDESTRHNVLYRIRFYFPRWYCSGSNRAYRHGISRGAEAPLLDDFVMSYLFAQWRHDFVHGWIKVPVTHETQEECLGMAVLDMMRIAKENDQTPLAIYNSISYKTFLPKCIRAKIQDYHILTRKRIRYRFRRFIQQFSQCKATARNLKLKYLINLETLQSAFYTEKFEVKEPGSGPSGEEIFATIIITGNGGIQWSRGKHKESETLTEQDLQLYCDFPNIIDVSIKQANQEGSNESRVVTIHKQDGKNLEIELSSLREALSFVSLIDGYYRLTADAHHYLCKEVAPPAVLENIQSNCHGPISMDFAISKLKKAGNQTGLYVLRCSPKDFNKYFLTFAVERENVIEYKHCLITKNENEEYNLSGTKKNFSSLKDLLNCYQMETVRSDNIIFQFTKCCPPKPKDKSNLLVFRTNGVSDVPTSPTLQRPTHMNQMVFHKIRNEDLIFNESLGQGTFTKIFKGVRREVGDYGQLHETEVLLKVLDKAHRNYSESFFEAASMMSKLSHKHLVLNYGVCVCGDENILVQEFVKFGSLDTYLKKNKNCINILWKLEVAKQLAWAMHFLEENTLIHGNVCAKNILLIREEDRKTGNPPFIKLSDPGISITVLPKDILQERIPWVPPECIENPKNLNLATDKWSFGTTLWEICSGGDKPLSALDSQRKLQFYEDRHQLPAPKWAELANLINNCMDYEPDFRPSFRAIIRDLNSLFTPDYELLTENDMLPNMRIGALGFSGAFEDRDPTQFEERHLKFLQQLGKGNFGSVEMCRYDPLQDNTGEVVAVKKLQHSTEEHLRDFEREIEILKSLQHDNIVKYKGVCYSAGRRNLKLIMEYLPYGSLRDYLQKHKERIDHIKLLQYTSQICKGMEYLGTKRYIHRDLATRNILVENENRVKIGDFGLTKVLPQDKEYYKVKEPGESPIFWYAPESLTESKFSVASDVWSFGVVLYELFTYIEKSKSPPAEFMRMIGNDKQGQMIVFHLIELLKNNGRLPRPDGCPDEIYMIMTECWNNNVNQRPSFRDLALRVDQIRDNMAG

[6] = target: Hck (UniProt P08631); test: as above
Chain of Hck (P08631 whole entry, looked up): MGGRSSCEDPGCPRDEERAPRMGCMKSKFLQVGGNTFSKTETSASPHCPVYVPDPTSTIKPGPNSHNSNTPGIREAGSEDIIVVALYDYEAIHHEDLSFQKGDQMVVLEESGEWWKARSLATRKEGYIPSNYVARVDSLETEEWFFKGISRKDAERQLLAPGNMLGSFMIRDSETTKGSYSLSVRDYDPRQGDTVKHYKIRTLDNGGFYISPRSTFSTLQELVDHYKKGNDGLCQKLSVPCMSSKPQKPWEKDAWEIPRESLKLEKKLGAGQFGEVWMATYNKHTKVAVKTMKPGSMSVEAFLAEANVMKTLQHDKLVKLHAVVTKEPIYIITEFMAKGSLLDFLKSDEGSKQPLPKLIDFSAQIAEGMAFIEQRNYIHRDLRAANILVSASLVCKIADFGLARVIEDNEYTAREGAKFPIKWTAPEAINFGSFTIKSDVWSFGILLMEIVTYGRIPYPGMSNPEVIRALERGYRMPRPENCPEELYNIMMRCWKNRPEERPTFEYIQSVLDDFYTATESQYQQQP

[7] = target: EPHB1 (UniProt P54762); test: as above
Chain of EPHB1 (P54762 whole entry, looked up): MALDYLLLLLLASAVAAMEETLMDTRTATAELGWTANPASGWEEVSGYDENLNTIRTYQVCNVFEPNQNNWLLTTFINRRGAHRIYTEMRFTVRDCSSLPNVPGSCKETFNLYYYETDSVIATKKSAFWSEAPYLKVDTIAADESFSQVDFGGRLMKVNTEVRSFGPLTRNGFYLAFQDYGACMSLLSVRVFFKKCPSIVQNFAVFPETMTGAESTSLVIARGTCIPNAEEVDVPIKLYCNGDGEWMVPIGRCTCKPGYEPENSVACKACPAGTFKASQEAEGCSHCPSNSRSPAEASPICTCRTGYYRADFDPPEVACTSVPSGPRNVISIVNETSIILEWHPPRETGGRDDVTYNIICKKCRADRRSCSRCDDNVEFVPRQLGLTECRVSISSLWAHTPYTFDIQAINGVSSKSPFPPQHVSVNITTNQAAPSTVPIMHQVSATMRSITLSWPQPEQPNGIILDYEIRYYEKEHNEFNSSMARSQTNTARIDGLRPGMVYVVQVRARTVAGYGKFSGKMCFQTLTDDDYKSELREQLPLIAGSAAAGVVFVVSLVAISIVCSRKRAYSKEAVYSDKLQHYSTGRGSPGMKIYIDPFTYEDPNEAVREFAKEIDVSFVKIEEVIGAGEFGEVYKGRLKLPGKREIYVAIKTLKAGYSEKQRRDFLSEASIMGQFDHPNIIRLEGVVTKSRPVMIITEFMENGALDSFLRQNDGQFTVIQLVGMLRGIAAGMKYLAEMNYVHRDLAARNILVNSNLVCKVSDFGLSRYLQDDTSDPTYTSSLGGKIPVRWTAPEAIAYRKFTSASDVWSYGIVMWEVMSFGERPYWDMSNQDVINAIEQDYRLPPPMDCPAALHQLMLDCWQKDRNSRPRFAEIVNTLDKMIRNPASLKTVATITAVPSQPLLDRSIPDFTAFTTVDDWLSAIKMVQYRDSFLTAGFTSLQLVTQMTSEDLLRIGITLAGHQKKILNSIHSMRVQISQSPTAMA

[8] = target: Fes (UniProt P07332); test: as above
[9] = target: EPHB2 (UniProt P29323); test: as above
Chain of EPHB2 (P29323 whole entry, looked up): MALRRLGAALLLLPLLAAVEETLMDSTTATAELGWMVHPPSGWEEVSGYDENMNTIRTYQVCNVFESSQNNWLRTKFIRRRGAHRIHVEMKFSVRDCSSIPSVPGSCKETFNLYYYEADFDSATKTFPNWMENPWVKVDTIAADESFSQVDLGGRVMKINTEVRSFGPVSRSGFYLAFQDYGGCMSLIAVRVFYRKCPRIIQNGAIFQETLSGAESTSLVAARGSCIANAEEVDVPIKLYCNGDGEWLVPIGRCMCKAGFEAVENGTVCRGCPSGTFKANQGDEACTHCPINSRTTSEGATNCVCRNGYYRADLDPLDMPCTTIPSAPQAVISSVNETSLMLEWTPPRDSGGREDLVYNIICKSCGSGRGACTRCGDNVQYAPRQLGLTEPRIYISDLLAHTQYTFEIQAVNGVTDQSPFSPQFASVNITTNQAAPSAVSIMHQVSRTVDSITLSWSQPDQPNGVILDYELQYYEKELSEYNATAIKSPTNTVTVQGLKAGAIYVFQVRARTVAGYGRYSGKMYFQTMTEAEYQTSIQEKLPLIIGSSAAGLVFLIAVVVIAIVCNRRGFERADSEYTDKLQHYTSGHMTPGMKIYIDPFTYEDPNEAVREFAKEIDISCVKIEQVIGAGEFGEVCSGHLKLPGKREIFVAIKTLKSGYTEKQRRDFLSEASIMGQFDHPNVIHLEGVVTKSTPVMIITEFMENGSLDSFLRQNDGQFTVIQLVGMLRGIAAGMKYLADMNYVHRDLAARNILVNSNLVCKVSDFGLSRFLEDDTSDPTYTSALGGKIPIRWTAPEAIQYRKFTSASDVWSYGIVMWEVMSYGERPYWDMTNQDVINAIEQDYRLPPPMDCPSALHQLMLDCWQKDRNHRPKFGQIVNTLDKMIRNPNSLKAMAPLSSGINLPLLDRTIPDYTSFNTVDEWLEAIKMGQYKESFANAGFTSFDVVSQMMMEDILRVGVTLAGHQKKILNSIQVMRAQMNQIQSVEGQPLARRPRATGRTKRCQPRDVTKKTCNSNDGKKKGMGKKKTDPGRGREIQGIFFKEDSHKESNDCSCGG

[10] = test system: c-Abl (mouse); test: as above
[11] = target: Fyn (UniProt P06241); test: as above
Chain of Fyn (P06241 whole entry, looked up): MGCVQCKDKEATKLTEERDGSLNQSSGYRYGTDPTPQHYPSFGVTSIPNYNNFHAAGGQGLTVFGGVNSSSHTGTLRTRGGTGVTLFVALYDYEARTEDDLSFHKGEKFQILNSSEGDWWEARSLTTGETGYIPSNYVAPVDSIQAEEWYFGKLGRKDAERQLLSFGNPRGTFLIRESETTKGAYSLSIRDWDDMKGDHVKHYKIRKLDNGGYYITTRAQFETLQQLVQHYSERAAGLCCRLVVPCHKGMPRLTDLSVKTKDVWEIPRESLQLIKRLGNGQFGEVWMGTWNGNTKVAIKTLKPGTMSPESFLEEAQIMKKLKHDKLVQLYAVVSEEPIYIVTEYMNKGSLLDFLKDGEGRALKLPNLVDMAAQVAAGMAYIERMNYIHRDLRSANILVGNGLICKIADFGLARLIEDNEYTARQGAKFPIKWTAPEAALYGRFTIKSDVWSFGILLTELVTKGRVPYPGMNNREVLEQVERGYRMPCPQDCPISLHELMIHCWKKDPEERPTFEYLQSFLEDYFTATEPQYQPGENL

[12] = target: FGFR1 (UniProt P11362); test: as above
Chain of FGFR1 (P11362 whole entry, looked up): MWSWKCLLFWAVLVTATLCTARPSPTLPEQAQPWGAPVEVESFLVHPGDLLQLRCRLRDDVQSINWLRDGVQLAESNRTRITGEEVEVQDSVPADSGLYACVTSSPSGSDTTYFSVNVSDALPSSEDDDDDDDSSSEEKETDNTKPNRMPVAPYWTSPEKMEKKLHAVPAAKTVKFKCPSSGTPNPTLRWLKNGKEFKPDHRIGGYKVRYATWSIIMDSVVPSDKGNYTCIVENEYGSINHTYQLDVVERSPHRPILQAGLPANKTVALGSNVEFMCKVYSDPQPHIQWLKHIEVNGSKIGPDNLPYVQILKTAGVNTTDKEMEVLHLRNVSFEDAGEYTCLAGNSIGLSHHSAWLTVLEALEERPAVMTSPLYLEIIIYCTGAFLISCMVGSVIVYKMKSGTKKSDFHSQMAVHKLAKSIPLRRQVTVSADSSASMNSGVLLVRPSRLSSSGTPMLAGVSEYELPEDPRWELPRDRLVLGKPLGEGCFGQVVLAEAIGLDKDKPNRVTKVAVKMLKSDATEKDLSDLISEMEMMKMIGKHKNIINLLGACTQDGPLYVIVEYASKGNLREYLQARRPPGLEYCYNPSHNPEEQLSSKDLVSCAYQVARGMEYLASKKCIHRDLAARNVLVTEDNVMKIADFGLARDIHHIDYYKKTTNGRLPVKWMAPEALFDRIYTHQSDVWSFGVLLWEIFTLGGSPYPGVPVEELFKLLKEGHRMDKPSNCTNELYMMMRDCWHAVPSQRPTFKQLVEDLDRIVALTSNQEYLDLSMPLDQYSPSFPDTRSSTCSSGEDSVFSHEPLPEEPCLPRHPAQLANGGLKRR

[13] = test system: Fer (mouse); test: as above
[14] = target: c-Src SH2; test: SH2 binding enrichment of the phosphorylated peptide, bacterial display (enrichment ratio); higher = better substrate or ligand; peptides without Tyr show the background
[15] = target: SHP2-C SH2; test: as above
[16] = target: Grb2 SH2 (UniProt P62993); test: as above
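Wherever SH2 binding enrichment of the phosphorylated peptide, bacterial display is given: peptide library displayed on the E. coli surface as eCPX fusions, selected cells deep-sequenced, score is each peptide's frequency after selection divided by its frequency in the input.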
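Wherever phosphorylation enrichment, bacterial display is given: 11-residue human phosphosite peptides and single-mutation variants displayed on the E. coli surface, counted by deep sequencing, each peptide's frequency after selection divided by its frequency in the unselected input library; frequency after pTyr selection over input frequency; kinase dosed for 20-30% of maximal phosphorylation in three min.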

Sequence | SH2 binding enrichment [14] | SH2 binding enrichment [15] | SH2 binding enrichment [16] | phosphorylation enrichment [1] | phosphorylation enrichment [2] | phosphorylation enrichment [3] | phosphorylation enrichment [4] | phosphorylation enrichment [5] | phosphorylation enrichment [6] | phosphorylation enrichment [7] | phosphorylation enrichment [8] | phosphorylation enrichment [9] | phosphorylation enrichment [10] | phosphorylation enrichment [11] | phosphorylation enrichment [12] | phosphorylation enrichment [13]
GVRLYYRVMES [RB1_Y454] | 0.973 | 0.829 | 0.871 | 0.711 | 0.333 | 1.03 | 0.419 | 1.02 | 0.437 | 0.587 | 1.26 | 0.574 | 0.731 | 0.438 | 0.535 | 0.538
GVSYIYTIDGS [DCX_Y105_R102S] | 0.726 | 16.3 | 0.794 | 0.711 | 4.85 | 1.11 | 1.28 | 0.944 | 2.71 | 0.618 | 1.08 | 0.498 | 0.663 | 5.77 | 0.494 | 0.412
HESEIYCKVCY [CSRP3_Y57] | 1.8 | 1.81 | 1.58 | 0.855 | 7.01 | 1.41 | 2.65 | 1.14 | 7.96 | 0.925 | 1.25 | 0.782 | 1.01 | 5.52 | 1.03 | 2.51
HFVDEYDRTIE [KRAS_Y32_P34R] | 1.14 | 0.682 | 1.06 | 0.932 | 0.989 | 2.01 | 0.58 | 1.67 | 0.701 | 0.875 | 1.66 | 0.805 | 1.36 | 0.653 | 0.644 | 0.794
HHTNEYEYDEL [TGM1_Y134_D132N] | 1 | 0.676 | 0.902 | 0.813 | 0.901 | 1.32 | 0.594 | 1.18 | 0.489 | 0.497 | 1.17 | 0.585 | 1.58 | 0.952 | 0.69 | 0.736
HKANEYYPVVI [ADAMTS18_Y764_L769I] | 0.587 | 1.06 | 0.665 | 13.1 | 0.427 | 2.1 | 0.558 | 2.19 | 0.723 | 1.01 | 0.746 | 0.599 | 0.61 | 0.676 | 17.4 | 1.26
HLQQSYLPRGT [TEX45_Y396] | 0.3 | 0.458 | 0.442 | 0.927 | 1.32 | 1.04 | 0.66 | 1.38 | 0.661 | 0.622 | 1.26 | 0.773 | 1.59 | 0.939 | 0.97 | 0.697
HNELYYEEAEH [VANGL1_Y345] | 0.798 | 0.95 | 0.871 | 2.08 | 0.708 | 2.06 | 1.11 | 1.32 | 0.798 | 1.21 | 1.53 | 0.993 | 0.936 | 0.751 | 1.63 | 1.81
HNQDGYSFPSR [LDLR_Y845_YF] | 4.23 | 0.76 | 1.06 | 1.08 | 1.02 | 1.94 | 1.15 | 1.55 | 0.748 | 0.762 | 1.45 | 0.939 | 1.31 | 0.996 | 0.906 | 0.871

Further lines, with some results ahead:

SH2 binding enrichment [14] | SH2 binding enrichment [15] | SH2 binding enrichment [16] | Sequence | phosphorylation enrichment [1] | phosphorylation enrichment [2] | phosphorylation enrichment [3] | phosphorylation enrichment [4] | phosphorylation enrichment [5] | phosphorylation enrichment [6] | phosphorylation enrichment [7] | phosphorylation enrichment [8] | phosphorylation enrichment [9] | phosphorylation enrichment [10] | phosphorylation enrichment [11] | phosphorylation enrichment [12] | phosphorylation enrichment [13]
0.707 | 0.979 | 0.801 | HAVYIYDICHV [TWNK_Y508_V507I] | 1.65 | 5.31 | 2.46 | 6.7 | 0.989 | 5.31 | 8.01 | 1.77 | 8.7 | 4.12 | 7.62 | 1.57 | 9.37
0.812 | 1.21 | 1.01 | HCHEGYILHGA [SVEP1_Y2921] | 0.768 | 1.12 | 1.45 | 0.945 | 1.94 | 0.827 | 1.27 | 1.78 | 0.746 | 1.61 | 0.888 | 0.722 | 0.45
0.676 | 0.868 | 0.925 | HEKFLYFLPAS [DYNC2H1_Y346] | 1.82 | 1.08 | 2.17 | 3.9 | 2.82 | 2.12 | 1.72 | 1.8 | 1.3 | 1.4 | 1.87 | 1.08 | 0.931
0.58 | 0.548 | 0.758 | HFGCIYHGTLL [MET_Y1093_V1092I] | 0.931 | 4.15 | 1.4 | 0.527 | 1.38 | 0.949 | 0.714 | 1.46 | 0.951 | 1.34 | 1 | 0.984 | 0.716
2.42 | 0.725 | 1.01 | HLMLQYDAVVN [SLC25A32_Y152_R147H] | 1.35 | 0.885 | 1.75 | 1.27 | 1.51 | 1.39 | 0.93 | 2.01 | 1.51 | 1.08 | 1.15 | 1.19 | 1.81
